In assay [1] the target is T1, Fc-binding protein (the ZZ domain of ProA).
T1 construct: domain: ZZ domain of ProA; the construct is not described
Nature of the assay: flow cytometry on cells expressing the Fc-binding ZZ domain on their surface; given as a measure of expression. An excerpt:
(§1) Antibodies were generated using the common light chains B9, F10, C11, and H11 paired with 8 different heavy chains. […] Binding is expressed as Signal:Background for binding to the molecular target of the heavy chain antibody (listed at top of Table 4). Expression is based on binding to cells expressing an Fc-binding protein (the ZZ domain of ProA) (ZZ) on their surface, enabling total antibody to bind and be measured. Detection was using flow cytometry with cells transfected to express the target protein. Background binding S:B is normalized to 1.0, using mock-transfected cells as background. The data in the table below illustrate that the light chains can be used with a variety of heavy chains and the antibody generated from a VH that can bind to the light chains B9 and F10 will function and bind to the target of interest.
A general note: Flow cytometry measures light scatter and fluorescence of single cells or particles in a stream.

The next assay concerns the target T2, CD63 (UniProt P08962 2-238, limits assumed).
T2 construct: whole, on cells
The assay can be described thus: flow cytometry on cells transfected with the target; signal over mock-transfected cells (background = 1.0).
Text: as §1

The target in another assay is T3, CD151 (UniProt P48509 1-253, limits assumed).
T3 construct: whole, on cells
T3 sequence (looked up): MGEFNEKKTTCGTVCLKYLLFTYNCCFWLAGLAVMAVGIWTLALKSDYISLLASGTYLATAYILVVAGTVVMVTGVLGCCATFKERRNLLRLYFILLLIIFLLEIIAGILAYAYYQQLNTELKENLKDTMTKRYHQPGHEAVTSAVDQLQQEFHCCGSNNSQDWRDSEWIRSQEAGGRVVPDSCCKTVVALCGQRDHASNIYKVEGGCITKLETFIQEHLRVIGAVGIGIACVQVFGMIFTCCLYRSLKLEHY
The assay is described as above.
Text: as §1

The target of another assay is T4, IGSF8 (UniProt Q969P0 28-613, limits assumed).
T4 construct: whole, on cells
T4 sequence (looked up): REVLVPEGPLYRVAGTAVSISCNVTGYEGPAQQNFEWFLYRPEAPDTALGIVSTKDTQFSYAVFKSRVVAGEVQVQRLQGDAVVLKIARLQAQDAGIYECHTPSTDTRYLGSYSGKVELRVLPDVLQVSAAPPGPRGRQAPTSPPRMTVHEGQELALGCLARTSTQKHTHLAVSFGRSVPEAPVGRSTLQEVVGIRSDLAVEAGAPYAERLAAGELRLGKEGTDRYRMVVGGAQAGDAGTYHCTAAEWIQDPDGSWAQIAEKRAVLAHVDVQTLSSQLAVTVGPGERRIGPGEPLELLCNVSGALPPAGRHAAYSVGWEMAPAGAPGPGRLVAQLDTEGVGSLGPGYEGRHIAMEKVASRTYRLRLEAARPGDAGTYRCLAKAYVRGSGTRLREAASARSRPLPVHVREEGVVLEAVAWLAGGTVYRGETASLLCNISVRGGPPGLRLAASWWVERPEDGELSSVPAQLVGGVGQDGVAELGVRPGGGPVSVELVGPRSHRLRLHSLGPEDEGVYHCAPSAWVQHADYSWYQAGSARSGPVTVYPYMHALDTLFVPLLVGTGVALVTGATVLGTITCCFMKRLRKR
Described as above.
Text: as §1

14 molecules from patent US20200262898A1 (INTEGRAL MOLECULAR, published 2020) can be followed below.

B1: Antibody of light chain D3 (D3chicken) paired with the heavy chain against CD63 (antibody, V domains shown)
VH: AVTLDESGGGLQTPGGALSLVCKASGFTFSDRGMHWVRQAPGKGLEWVAGIRSTGSFTLYGAAVKGRATISRDDGQSTLRLQLNNLRAEDTGTYYCAKSAGGYGCGRGWCGVDDIDAWGHGTEVIVSS
VL: ALTQPSSVSANPGETVKITCSGDDRWYGWYQQKSPGSAPVTLIYSNDKRPSDIPSRFSGSKSGSTGTLTITGVQADDEAVYFCGSRDSSYAGIFGAGTTLTVL
notes: also called HC-CD63
With B1, the “S:B Expression” value in assay [1] is 3.9 S:B. Moreover, the “S:B Binding” value in the assay with CD63 was 20.6 S:B.

B2: Antibody of light chain E1 (E1chicken) paired with the heavy chain against CD63 (antibody, V domains shown)
VH: AVTLDESGGGLQTPGGALSLVCKASGFTFSDRGMHWVRQAPGKGLEWVAGIRSTGSFTLYGAAVKGRATISRDDGQSTLRLQLNNLRAEDTGTYYCAKSAGGYGCGRGWCGVDDIDAWGHGTEVIVSS
VL: ALTQPSSVSANPGETVKITCSGSSGSGYYGWYQQKSPGSAPVTLIYDNDKRPSDIPSRFSGSKSGSTGTLTITGVQADDEAVYFCGSADNNYTGIFGAGTTLTVL
notes: also called HC-CD63
As to B2, the “S:B Expression” value in assay [1] was 24.4 S:B. In addition, in the assay with CD63, the “S:B Binding” value was 31.8 S:B.

B3: Antibody of common light chain B9 (B9chicken) paired with the heavy chain against CD151 (antibody, V domains shown)
VH: AVTLDESGGGLQMPGGALSLVCKASGFTFSSYGMEWVRQAPGKGLEWVAGISSGGGSTDYGTAVKGRATISRDNGQSTVRLQLNNLRAEDTGTYFCAKSAYGGTWDGDDIDAWGHGTEVIVSS
VL: ALTQPSSVSANPGETVKITCSGGGSSNYYGWYQQKSPGSAPVTLIYGTNKRPSDIPSRFSGSKSGSTGTLTITGVQADDEAVYFCGSADSSTNAGIFGAGTTLTVL
notes: also called HC-CD151
In the case of B3, the “S:B Expression” value in assay [1] is 9.7 S:B. For the same molecule, the “S:B Binding” value with CD151 is 27.4 S:B.

B4: Antibody of common light chain B9 (B9chicken) paired with the heavy chain against IGSF8 (antibody, V domains shown)
VH: AVTLDESGGGLQTPGGGLSLVCKASGFSISSYEMQWVRQAPGKGLEWVAGIDDDGSSRAYAPAVKGRATISRDNGQSTVRLQLNNLRAEDTGTYYCAKTIYAATLNAGEIDAWGHGTEVIVSS
VL: ALTQPSSVSANPGETVKITCSGGGSSNYYGWYQQKSPGSAPVTLIYGTNKRPSDIPSRFSGSKSGSTGTLTITGVQADDEAVYFCGSADSSTNAGIFGAGTTLTVL
notes: also called HC-IGSF8
As to B4, the “S:B Expression” value in assay [1] is 12.7 S:B. Moreover, the “S:B Binding” value with IGSF8 is 1.7 S:B.

B5: Antibody of common light chain B9 (B9chicken) paired with the heavy chain against CD63 (antibody, V domains shown)
VH: AVTLDESGGGLQTPGGALSLVCKASGFTFSDRGMHWVRQAPGKGLEWVAGIRSTGSFTLYGAAVKGRATISRDDGQSTLRLQLNNLRAEDTGTYYCAKSAGGYGCGRGWCGVDDIDAWGHGTEVIVSS
VL: ALTQPSSVSANPGETVKITCSGGGSSNYYGWYQQKSPGSAPVTLIYGTNKRPSDIPSRFSGSKSGSTGTLTITGVQADDEAVYFCGSADSSTNAGIFGAGTTLTVL
notes: also called HC-CD63
Regarding B5, the “S:B Expression” value in assay [1] was 11.3 S:B. For the same molecule, the “S:B Binding” value with CD63 is 2.7 S:B.

B6: Antibody of common light chain B9 (B9chicken) paired with the heavy chain against CD147 (antibody, V domains shown)
VH: AVTLDESGGGLQTPGGGLSLVCKASGFTFSSYAMYWVRQAPGKGLQWVAGISRDGSSGRYGAAVKGRATISRDNGQSTVRLQLNNLRAEDTATYFCAKSGYGDYTSADEIDAWGHGTEVIVSS
VL: ALTQPSSVSANPGETVKITCSGGGSSNYYGWYQQKSPGSAPVTLIYGTNKRPSDIPSRFSGSKSGSTGTLTITGVQADDEAVYFCGSADSSTNAGIFGAGTTLTVL
notes: also called HC-CD147
For the molecule B6, the “S:B Expression” value in assay [1] was 17 S:B.

B7: Antibody of common light chain C11 (C11chicken) paired with the heavy chain against CD151 (antibody, V domains shown)
VH: AVTLDESGGGLQMPGGALSLVCKASGFTFSSYGMEWVRQAPGKGLEWVAGISSGGGSTDYGTAVKGRATISRDNGQSTVRLQLNNLRAEDTGTYFCAKSAYGGTWDGDDIDAWGHGTEVIVSS
VL: ALTQPSSVSANPGETVKITCSGGGSWYGSYYYGWYQQKSPGSAPVTLIYNNDKRPSDIPSRFSGSESGSTATLTITGVQAEDEAVYFCGGYDSTTTDMFGAGTTLTVL
notes: also called HC-CD151
B7: the “S:B Expression” value in assay [1] is 11.5 S:B. For the same molecule, the “S:B Binding” value with CD151 was 1.4 S:B.

B8: Antibody of light chain E1 (E1chicken) paired with the heavy chain against CD151 (antibody, V domains shown)
VH: AVTLDESGGGLQMPGGALSLVCKASGFTFSSYGMEWVRQAPGKGLEWVAGISSGGGSTDYGTAVKGRATISRDNGQSTVRLQLNNLRAEDTGTYFCAKSAYGGTWDGDDIDAWGHGTEVIVSS
VL: ALTQPSSVSANPGETVKITCSGSSGSGYYGWYQQKSPGSAPVTLIYDNDKRPSDIPSRFSGSKSGSTGTLTITGVQADDEAVYFCGSADNNYTGIFGAGTTLTVL
notes: also called HC-CD151
Regarding B8, in assay [1], the “S:B Expression” value was 11.3 S:B. Further, in the assay with CD151, the “S:B Binding” value is 28.8 S:B.

B9: Antibody of light chain D3 (D3chicken) paired with the heavy chain against CD151 (antibody, V domains shown)
VH: AVTLDESGGGLQMPGGALSLVCKASGFTFSSYGMEWVRQAPGKGLEWVAGISSGGGSTDYGTAVKGRATISRDNGQSTVRLQLNNLRAEDTGTYFCAKSAYGGTWDGDDIDAWGHGTEVIVSS
VL: ALTQPSSVSANPGETVKITCSGDDRWYGWYQQKSPGSAPVTLIYSNDKRPSDIPSRFSGSKSGSTGTLTITGVQADDEAVYFCGSRDSSYAGIFGAGTTLTVL
notes: also called HC-CD151
For the molecule B9, the “S:B Expression” value in assay [1] was 6.5 S:B. For the same molecule, in the assay with CD151, the “S:B Binding” value was 47.5 S:B.

B10: Antibody of common light chain C11 (C11chicken) paired with the heavy chain against IGSF8 (antibody, V domains shown)
VH: AVTLDESGGGLQTPGGGLSLVCKASGFSISSYEMQWVRQAPGKGLEWVAGIDDDGSSRAYAPAVKGRATISRDNGQSTVRLQLNNLRAEDTGTYYCAKTIYAATLNAGEIDAWGHGTEVIVSS
VL: ALTQPSSVSANPGETVKITCSGGGSWYGSYYYGWYQQKSPGSAPVTLIYNNDKRPSDIPSRFSGSESGSTATLTITGVQAEDEAVYFCGGYDSTTTDMFGAGTTLTVL
notes: also called HC-IGSF8
For the molecule B10, the “S:B Expression” value in assay [1] was 12 S:B. Also, in the assay with IGSF8, the “S:B Binding” value is 5.5 S:B.

B11: Antibody of common light chain C11 (C11chicken) paired with the heavy chain against CD147 (antibody, V domains shown)
VH: AVTLDESGGGLQTPGGGLSLVCKASGFTFSSYAMYWVRQAPGKGLQWVAGISRDGSSGRYGAAVKGRATISRDNGQSTVRLQLNNLRAEDTATYFCAKSGYGDYTSADEIDAWGHGTEVIVSS
VL: ALTQPSSVSANPGETVKITCSGGGSWYGSYYYGWYQQKSPGSAPVTLIYNNDKRPSDIPSRFSGSESGSTATLTITGVQAEDEAVYFCGGYDSTTTDMFGAGTTLTVL
notes: also called HC-CD147
On to B11, for which the “S:B Expression” value in assay [1] was 16.6 S:B.

B12: Antibody of light chain D3 (D3chicken) paired with the heavy chain against IGSF8 (antibody, V domains shown)
VH: AVTLDESGGGLQTPGGGLSLVCKASGFSISSYEMQWVRQAPGKGLEWVAGIDDDGSSRAYAPAVKGRATISRDNGQSTVRLQLNNLRAEDTGTYYCAKTIYAATLNAGEIDAWGHGTEVIVSS
VL: ALTQPSSVSANPGETVKITCSGDDRWYGWYQQKSPGSAPVTLIYSNDKRPSDIPSRFSGSKSGSTGTLTITGVQADDEAVYFCGSRDSSYAGIFGAGTTLTVL
notes: also called HC-IGSF8
As to B12, the “S:B Expression” value in assay [1] is 3.2 S:B. The “S:B Binding” value with IGSF8 was 19.4 S:B.

B13: Antibody of common light chain C11 (C11chicken) paired with the heavy chain against CD63 (antibody, V domains shown)
VH: AVTLDESGGGLQTPGGALSLVCKASGFTFSDRGMHWVRQAPGKGLEWVAGIRSTGSFTLYGAAVKGRATISRDDGQSTLRLQLNNLRAEDTGTYYCAKSAGGYGCGRGWCGVDDIDAWGHGTEVIVSS
VL: ALTQPSSVSANPGETVKITCSGGGSWYGSYYYGWYQQKSPGSAPVTLIYNNDKRPSDIPSRFSGSESGSTATLTITGVQAEDEAVYFCGGYDSTTTDMFGAGTTLTVL
notes: also called HC-CD63
Regarding B13, in assay [1], the “S:B Expression” value is 8.8 S:B. In addition, the “S:B Binding” value with CD63 is 0.8 S:B.

B14: Antibody of light chain E1 (E1chicken) paired with the heavy chain against IGSF8 (antibody, V domains shown)
VH: AVTLDESGGGLQTPGGGLSLVCKASGFSISSYEMQWVRQAPGKGLEWVAGIDDDGSSRAYAPAVKGRATISRDNGQSTVRLQLNNLRAEDTGTYYCAKTIYAATLNAGEIDAWGHGTEVIVSS
VL: ALTQPSSVSANPGETVKITCSGSSGSGYYGWYQQKSPGSAPVTLIYDNDKRPSDIPSRFSGSKSGSTGTLTITGVQADDEAVYFCGSADNNYTGIFGAGTTLTVL
notes: also called HC-IGSF8
For B14, the “S:B Expression” value in assay [1] was 2 S:B. The “S:B Binding” value with IGSF8 is 18.1 S:B.
